The results in this text go back to article PMC10850085 (Nature Communications, 2024).

For experiment [1], the target named is murine TpoR ectodomain, monomeric (TpoR_(1-479)) (mouse) (UniProt Q08351).
Experiment [2] has the same target. The experiment is described as follows: SPR; high concentrations of the Tpo F162E mutant, up to 10 µM; which TpoR form and which partner was immobilised is not stated. On the technique in general: Surface plasmon resonance follows binding to a sensor surface in real time, without labels.
Experiment [3] concerns the target T1, murine TpoR ectodomain, monomeric (TpoR_(1-479)) (mouse, UniProt Q08351 26-479, N-linked glycans at N117, N178, N349; tryptophan mannosylation (W465, W468)).
T1 chain: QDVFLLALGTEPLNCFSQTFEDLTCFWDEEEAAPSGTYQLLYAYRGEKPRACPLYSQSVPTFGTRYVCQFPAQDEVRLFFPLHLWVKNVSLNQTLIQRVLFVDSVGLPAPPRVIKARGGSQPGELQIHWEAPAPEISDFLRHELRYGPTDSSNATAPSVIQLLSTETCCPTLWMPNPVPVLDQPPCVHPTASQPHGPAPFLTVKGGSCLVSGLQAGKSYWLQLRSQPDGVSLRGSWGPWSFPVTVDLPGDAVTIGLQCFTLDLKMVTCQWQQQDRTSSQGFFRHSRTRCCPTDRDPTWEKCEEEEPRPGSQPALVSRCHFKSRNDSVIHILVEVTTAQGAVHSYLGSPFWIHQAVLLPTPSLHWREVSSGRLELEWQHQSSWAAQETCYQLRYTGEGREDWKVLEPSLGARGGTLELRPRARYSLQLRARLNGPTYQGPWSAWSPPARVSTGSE
The experiment is described as follows: SPR; TpoR over immobilised romiplostim peptide.

For experiment [4], the target named is T1, murine TpoR ectodomain, monomeric …. As to the kind of experiment: SPR; TpoR over immobilised romiplostim peptide.
The target in experiment [5] is T2, murine TpoR ectodomain, monomeric (TpoR_(1-479)) (mouse, UniProt Q08351 26-479, N-linked glycans at N117, N178, N349; tryptophan mannosylation (W465, W468)).
T2 construct: signal peptide in the construct; Thrombopoietin receptor (c-Mpl), mouse, residues 1-479, followed by a TEV cleavage site and the Fc domain of hIgG1; Eluted from Protein G resin by TEV cleavage; residues of the TEV site may remain at the C-terminus; also called murine TpoR (monomeric); source: Expi293F cells, transiently transfected, secreted; purified (Protein G Sepharose, TEV elution, Superdex …)
T2 sequence (looked up): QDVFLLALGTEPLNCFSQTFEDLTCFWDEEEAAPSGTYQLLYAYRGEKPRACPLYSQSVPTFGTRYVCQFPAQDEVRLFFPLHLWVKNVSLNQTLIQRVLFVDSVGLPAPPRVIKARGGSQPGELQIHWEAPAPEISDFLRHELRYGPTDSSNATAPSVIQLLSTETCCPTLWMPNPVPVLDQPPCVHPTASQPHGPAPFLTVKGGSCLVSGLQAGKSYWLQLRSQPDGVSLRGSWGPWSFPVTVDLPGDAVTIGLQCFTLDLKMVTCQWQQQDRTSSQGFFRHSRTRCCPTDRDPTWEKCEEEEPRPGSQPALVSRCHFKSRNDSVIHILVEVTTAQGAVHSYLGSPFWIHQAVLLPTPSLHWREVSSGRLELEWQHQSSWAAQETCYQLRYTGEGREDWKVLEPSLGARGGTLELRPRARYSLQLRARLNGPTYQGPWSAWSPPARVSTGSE
As to the kind of experiment: SPR; TpoR (monomeric, dimeric or mutants) as analyte over N-terminally biotinylated romiplostim peptides on streptavidin chips; HBS-EP; two-fold dilution series, highest 100 nM. The conditions noted are these: both partners purified.

No end group written: not given here. *: point of attachment. Biotin = O=C1N[C@H]2[C@H](CS[C@H]2CCCCC(=O)*)N1

In turn, “murine Tpo D29E (site II mutant) (from UniProt P40226 22-356) (ligand)” gave an ability to induce differentiation of M1(TpoR) cells, fold decrease relative to the WT in experiment [1] of 100 fold.

For the molecule “murine Tpo F162E (site I mutant) (from UniProt P40226 22-356) (ligand)”, the Kd (usually the equilibrium constant for the complex coming apart) in experiment [2] was more than 10000 nM.

For the molecule “murine Tpo D29Y (site II mutant) (from UniProt P40226 22-356) (ligand)”, the ability to induce differentiation of M1(TpoR) cells, fold decrease relative to the WT in experiment [1] was determined as 100 fold.

B1: peptide version of romiplostim (two copies of IEGPTLRQWLAARA connected by a GG linker) (peptide)
peptide: Biotin-IEGPTLRQWLAARAGGIEGPTLRQWLAARA
notes: two copies of the TpoR agonist peptide joined by GG; Not the Fc fusion drug itself; The biotin is stated for the peptides coupled to streptavidin chips; also called romiplostim peptide; dimeric romiplostim peptide; source: synthetic peptide
For B1, in experiment [3], the off-rate constant (koff) (commonly the rate constant with which the complex falls apart) is 0.017 s⁻¹. The same molecule came in with a Kd in experiment [4] of 71 nM. Further, the binding result in experiment [5] is listed as “binds”.

B2: monomeric version of the romiplostim peptide (peptide)
peptide: Biotin-IEGPTLRQWLAARA
notes: TpoR agonist peptide motif of romiplostim; also called monomeric-romiplostim; monomeric version of the peptide; source: synthetic peptide
Regarding B2, the binding result in experiment [5] was “binds”.
